# Assay results taken from the nanobody polyreactivity screen of Harvey et al. (2022).
# Assay: yeast display, Sf9 membrane polyspecificity reagent, FACS + sequencing; frameworks hold sequencing errors
# Method in brief: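 Using colony PCR, genes from sorted yeast display clones were amplified, then sequenced on MiSeq at 2 × 250 and filtered by CDR length. The clones had been stained with 10% biotinylated, detergent-solubilized Sf9 membrane reagent for 1 hour at 4 °C and sorted by FACS into low and high (top ~1%) gates on anti-HA and streptavidin fluorescence. Polyreactivity labels come from the gate of origin.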
row,Sequence,polyreactivity (PSR sort gate)
1,QVQLVESGGGLVPAGGSLRLSCAASGFTFSYYAMGWYRQAPGKERELVAAISWSGGRTYYADSVKGRFTISRDNAKNTVYLEMNRLKPEDTAVYYCAVVYYGSIFVLEYDYWGQGTQVTVSS,high polyreactivity
2,QVQLVESGGGLVPAGGSLRLSCAASGLTFTTYAMGWYRQAPGKERELVAANSNSGATTYYADSVKGRFTISRDNAKNTVYLQMNSLKREETAVYYCAATSYTATWRYYYWGQGTQVTVSS,high polyreactivity
3,QVQLVESGGGLVPAGGSLRLSCAASGRTLYGYAMGWYRQAPGKERELVAAISGGGSTYYADSVKGRFTISRDNAKNTVYLQMNSLKPEDTAVYYCARRANFYVRRYYWGQGSQVTVSS,high polyreactivity
4,QVQLVESGGGLVPAGGSLRLSCAASGSTFTQNARGWYRQAPGKERELVAAISWSGARTYYADSVKGRFTISPDNANNTVYLQMNSLKPEDTAVYYCNNYARKRGTTNDYWGQGTQVTVSS,high polyreactivity
5,QVQLVESGGGLVPAGGSLRLSCASSGIIFWVNAMGWYRQAPGNERELVAAIRSDGSTKYADSVKRRFTISRDKAKNTVYVQMNSLKPVDTALYYCAKRDYSYPWFRDYYYWGQGTKVTVSS,low polyreactivity
6,QVQLVESGGGLVPAGGSRRLSCAASGSIFTSYAMGWYRQAPGKERELVAAISSSGGSTYYADSVSGRFTISRDNAKQTVYFQMNSLKPEDTAVYYCAARYKGVYAPHYYWGQGTQVTVSS,high polyreactivity
7,QVQLVESGGGLVPARGSLRLSCAASGSTFSDNAMGWYRQAPGKERELVAAINWSVGSTYYADSVKGRFTISRDNAKNTVYLQMNRRKPEDTAVYYCAGGYSLYESLVIFDYWGQGTQVTVSS,low polyreactivity
8,QVQLVESGGGLVQAAGSLRLSCAASGFIFQAYAMGWYRQAPGKERELVAAISSSGGSTYYADSVKGRFTISRDNAKYTVYLKRNILKPEDTAVYYCAARSRRVSLLSESYGYWGQGTQVTVSS,high polyreactivity
9,QVQLVESGGGLVQAAGSLRLSCAASGFTLTGNAMGWYRQATGKERELVAAISRNGGSTFYADSVKGRFTISRDNAKNTVFLQMNSLKPEDTAVYYCNASRYRHSAYKYDSWGQGTQVTVSS,high polyreactivity
10,QVQLVESGGGLVQAAGSLRLSCAASGITFRWYAMGWYRQAPGKERELVAAITYRGGSTHYEDSVKGRFTISRDNAKTSVYLQMNSLKPEDTAVYYCAVRRWPRYRWSDYWGKGTQVTVSS,low polyreactivity
11,QVQLVESGGGLVQAAGSLRLSCAASGNIFVRYVMGWYRQAPGKERELVAAITTSGGSTRYADSVKGRFTISRDNAKNSVYLQMNSLKPEDTAVYYCAARFRYRHLTYGYWGQGTQVTVSS,high polyreactivity
12,QVQLVESGGGLVQAAGSLRLSCAASGRTFSGYAMGWYRQAPGKERELVAAIRWSGGSTYYADSVKGRFTISRDNAKNTVYLQMNSLKPEDTAVYYCATRDYYYRYGYWGQGTQVTVSS,high polyreactivity
13,QVQLVESGGGLVQAAGSLRLSCAASGSTFDNKVMGWYRQAPGKERELVATITWGDGSTSYADSVKGRFTISRDIAKNTVYLELNSRKREDTAVYFCAAGEYYHRIFLWYVYWGQGTKVTVSS,low polyreactivity
14,QVQLVESGGGLVQAAGSLRLSCAASGYTLAGNAMGWYRQSPGIERELVAAIDWNGGSTTYADSVKGRFTISRDNAKNTVYLQMNSLKPEDSAVYYCNVDLGVNGDYWGQGWQVTVSS,low polyreactivity
15,QVQLVESGGGLVQAAGSLRLSCATSGFTFVSNAMGRYRQPHGKQRELVAAITKRRSGSTYYADSVKGRFTISRDNAKNTVYLQMNSLKPEDTAVYYCDRVPDTDGEYWGQGTQVTVSS,high polyreactivity
16,QVQLVESGGGLVQAAGSLRLSFAASGSIFGRYPMGWYRQAPGKERELVAAISTGDSTYYADSVKGRFTISRDNAKNTVYLQMISLKPEDTAVYYCNRRGRRGYDYWGQGTQVTVSS,high polyreactivity
17,QVQLVESGGGLVQAAGSLRLSSAASGLIFPYYVMGWYRQAPGKERELVAAISVSGGNTYYADSVKGRFTITRDNAKYTVYLQLNSLKPVDTAVYYSAADHYRGSYDYWGQGSQVTVSS,high polyreactivity
18,QVQLVESGGGLVQAAGSLRLSSAASGYTFYINAMGSYRQAPGKERELVATIRRRGGSTYYADSVKGRFTISRDNAKNTVYLQMNSLKPEDTAVYYCNADTLGGKYVYQYRRGFDYWGHGTQVTVSS,high polyreactivity
19,QVQLVESGGGLVQAAGSLRLSSAPSGRIFYKNARGWYRQAPGKETELVAAISWRGTSTYYADSVKGRFTISRDNAKNTVYLQMNILKPEDTAVYYCNTLYYSQREIYYWGYDSWGKGTQVTVSS,high polyreactivity
20,QVQLVESGGGLVQAAPSLRLSCAASGSTINNNAMGWYRQAPRKERELVAAIDSGFSTNYADSVKGRFTISRDNAKNTVYLQMNSLKPEDTAVYYCYADPDYFDYWGQGTQVTVSS,low polyreactivity
21,QVQLVESGGGLVQAGARLRLSCAASVSTFQSNAMGWSRQAPGKERELVAAIDQSGGSTYYADSLKGRFTISRDNAKNTVYLQMNSLKPEYTAVYYCAARTSGYWFSYGSWGQGTQVTVSS,high polyreactivity

row,Sequence,polyreactivity (PSR sort gate)
1,QVQLVESGGGLVQAGASHRLSCAASGSTFRYNSMGSYRQAPGKERELVAAISRGGSTNYADSVNGRFTISRDNANNTVYLQMISLKPEATAVYYCAASGTRQEYDYWGQGTQVTVSS,high polyreactivity
2,QVQLVESGGGLVQAGASLRISCAASGNILPVYAMGWYRQAPGKEREFVAAITSRGGSTYYADSVKGRFTISRDNAKNTVYLQMNSLKPEDTAVYYCAAKYLRAYGYWGQGTQVTVSS,high polyreactivity
3,QVQLVESGGGLVQAGASLRLSCAASGFTFGVYAMVWYRQAPGTVIELVAAISSSGGSTYYADSVKGRFTISRDNAKNTVYLQMNSLKPEDTAVYYCAKDTNSYYKYGYWGQGTQVTVSS,high polyreactivity
4,QVQLVESGGGLVQAGASLRLSCAASGIILGSYAMGWYRQAPAKERELVAGITSGGGKYYADSVKGRFTISRDNAKNTVYLQMNSMKPEYTAVYYCAKLYFHYYRYGYWGQGTQVTVSS,low polyreactivity
5,QVQLVESGGGLVQAGASLRLSCAASGITFTPYAMGWYRQAPGKERELVAAISWRGGSTYYADSVKGRFTISRDNAKNTVYLQMNSLKPEDTAVYYCAKDGRGYGRYSRYYTGDYWGQGTQVTVSS,low polyreactivity
6,QVQLVESGGGLVQAGASLRLSCAASGLIFIHYAMGWYRQAPGKERELVATISRSGVRTYYADSVKGRFTISRDNAKNTVYLQMNSLKPEDTAVYYCAADYTTNFWGYRYNYWGQGTQVTVSS,low polyreactivity
7,QVQLVESGGGLVQAGASLRLSCAASGLNFKRNAMGWYRQAPGKERELVAAIRYSTDSTNYADSVKGRFTISRDNAKNTVFLQMNSLKPEDTAVYYCAKDKQDYEYWGQGTLVTVSS,low polyreactivity
8,QVQLVESGGGLVQAGASLRLSCAASGLTFIFYAMGWYRQAPGKERELVAAISVSGGCTYYADSVKGRFTISRDNAKNTVYLQMNSLKPEDTAVYYCAADREHFATYGPHMDYWGQGTQVTVSS,low polyreactivity
9,QVQLVESGGGLVQAGASLRLSCAASGRIFRNYAMGWYRQAPGKERELVAAISSSGGSTYYADSVKGRFTISRDIAKNTVYFQMNSLKPEDTAVYYCAAVARVRGRGDYWGQGSQVTVSS,high polyreactivity
10,QVQLVESGGGLVQAGASLRLSCAASGRIFYLNVMGWYIQAPGKERELVAAISSSDDSTYYADSVKGRFTISRHYAKNTVYLQMNSLKPEDTAVYYCAAGYHQVQNYGDAYYWSELYSWGLGTQVTVSS,low polyreactivity
11,QVQLVESGGGLVQAGASLRLSCAASGSIFADYAMGWYRQAPGKERELVAAISYNGDSTYYADSVKGRFTISRDNAKNTVYLQMNSLKPEDTGVYYCATEDNYWYVTGDLYHTAFYYWGQGTQVTVSS,low polyreactivity
12,QVQLVESGGGLVQAGASLRLSCAASGSIFAGYAMGWYRQAPWKERELVAAISWSGGGTYYADSVKGRFTISRDNEKNTVYLQMNSLKPEDTAVYYCNAYGYRHRGNGYWGQGTQVTVSS,high polyreactivity
13,QVQLVESGGGLVQAGASLRLSCAASGSIFIYYAMGWYRQAPGKERELVAAISGGGRTNYADSVKGRFTISRDNAKNTVYLQMNSLKPEDTAVYYCAADPVYWYSTMDFWGQGTQVTVSS,low polyreactivity
14,QVQLVESGGGLVQAGASLRLSCAASGSISKSYAMGWYRQAPGKERELVAAISWRGGSTYADSVKGRFTISRDNAKNTVYLQMNSLKPEDTAVYYCAAVPVHTGSLYWGFTTGYDYWGQGTQVTVSS,low polyreactivity
15,QVQLVESGGGLVQAGASLRLSCAASGSTSYPYAMGWYRQAPWKEREFVAAITRSGGSTYYADSVKGRYTISRDNAKNTVYLQMNSLKPEDTAFYYCAARRYYFTDWYRRYDYWGQGTQVTVSS,high polyreactivity
16,QVQLVESGGGLVQAGASLRLSCAATGNIFVPNAMGWYRQEPGKERELVAAIRRGGSTNYADSVKGRFTISRDNAKNTVYLQMNSMKPEDTAVYYCAKSRVSFTELEGYYWGQGTQVNVSS,low polyreactivity
17,QVQLVESGGGLVQAGASLRLSCASSGFTFGYYTMGWYRQAPGKERELVAAISWSGDSTYYADSVKGRLTISRDNAKNTVYLQMNSLKPEDTAVYYCAAEVYGSWPDYDYSGQGTQVTVSS,low polyreactivity
18,QVQLVESGGGLVQAGASLRLSSAASGFIFRDYAMGWYRQAPGKDRELVAAISRGGGTTYYEDSVKGRFTISRENAKNTVYLQMNSLTPEDTAVYYCAAKSAFPLDYWGQGTQVTVSS,high polyreactivity
19,QVQLVESGGGLVQAGASLRVSCAASGISLKYAMVWYRQAPGKERELVASISSRGTSTYYADSVKGRFTISRDNAKNTVYLQMNCLIPEDTAVYYCAARVRWWSPGGYWGQGTQVSVSS,high polyreactivity
20,QVQLVESGGGLVQAGASLRVSCAASGSTFNYNAMGWYRQAPGKERELVAAITYSGSSTYYSDSVKGRFTISRDNAKNTVYLQMNSLKPEYTAVYYCAADYWFRYGTYEYWGQGTQVSVSS,high polyreactivity
